Blank lines part the entries; values can stand above or below the binder they belong to.
Legend:
Test in all cases: cell-based or functional assay
[1] = target: T1, AR-DBD + LBD (yeast 2-hybrid bait) (UniProt P10275 506-920)
T1 sequence (looked up): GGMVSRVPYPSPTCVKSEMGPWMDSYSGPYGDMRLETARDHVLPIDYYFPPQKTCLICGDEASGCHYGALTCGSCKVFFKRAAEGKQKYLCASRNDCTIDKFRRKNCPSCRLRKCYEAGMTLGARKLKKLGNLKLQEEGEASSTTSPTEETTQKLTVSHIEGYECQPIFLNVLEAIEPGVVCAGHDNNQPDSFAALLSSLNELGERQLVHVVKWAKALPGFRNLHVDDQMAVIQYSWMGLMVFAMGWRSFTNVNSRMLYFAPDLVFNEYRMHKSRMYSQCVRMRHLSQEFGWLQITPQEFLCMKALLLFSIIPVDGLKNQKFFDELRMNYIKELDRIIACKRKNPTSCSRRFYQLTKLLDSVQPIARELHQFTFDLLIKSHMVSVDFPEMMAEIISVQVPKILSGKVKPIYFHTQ

[2] = target: T2, AR-DBD (yeast 2-hybrid bait) (UniProt P10275 506-636)
T2 sequence (looked up): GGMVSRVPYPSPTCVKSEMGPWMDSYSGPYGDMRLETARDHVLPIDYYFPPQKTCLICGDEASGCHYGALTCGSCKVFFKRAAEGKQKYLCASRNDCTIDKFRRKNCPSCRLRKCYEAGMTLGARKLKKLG

[3] = target: pAS2 vector (empty bait control)
[4] = target: cortactin (yeast 2-hybrid bait)
[5] = target: T3, AR-AT (yeast 2-hybrid bait) (UniProt P10275 1-505)
T3 sequence (looked up): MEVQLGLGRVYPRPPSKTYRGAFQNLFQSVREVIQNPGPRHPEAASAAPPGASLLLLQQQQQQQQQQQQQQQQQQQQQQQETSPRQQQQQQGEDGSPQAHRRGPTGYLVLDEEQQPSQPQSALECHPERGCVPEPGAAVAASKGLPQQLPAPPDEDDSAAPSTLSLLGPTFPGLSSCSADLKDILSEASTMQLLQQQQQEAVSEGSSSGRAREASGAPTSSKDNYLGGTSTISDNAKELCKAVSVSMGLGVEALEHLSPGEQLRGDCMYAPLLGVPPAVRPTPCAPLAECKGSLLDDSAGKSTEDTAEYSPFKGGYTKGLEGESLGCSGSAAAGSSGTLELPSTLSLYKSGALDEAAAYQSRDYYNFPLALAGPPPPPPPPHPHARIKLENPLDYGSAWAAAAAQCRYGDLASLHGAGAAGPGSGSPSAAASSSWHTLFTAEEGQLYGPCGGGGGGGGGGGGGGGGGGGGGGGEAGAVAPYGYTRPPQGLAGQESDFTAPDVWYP

- Fold induction of β-galactosidase by DHT (yeast 2-hybrid) [1]: 5.7 fold
B1: pGAD424-GRIP1 (yeast 2-hybrid prey, GRIP1 amino acids 730-1121) (other, UniProt Q61026 730-1121, looked up, not shown: large carriers)
chain: VKQEPASPKKKENALLRYLLDKDDTKDIGLPEITPKLERLDSKTDPASNTKLIAMKTVKEEVSFEPSDQPGSELDNLEEILDDLQNSQLPQLFPDTRPGAPTGSVDKQAIINDLMQLTADSSPVPPAGAQKAALRMSQSTFNNPRPGQLGRLLPNQNLPLDITLQSPTGAGPFPPIRNSSPYSVIPQPGMMGNQGMLGSQGNLGNNSTGMIGSSTSRPSMPSGEWAPQSPAVRVTCAATTGAMNRPVQGGMIRNPTASIPMRANSQPGQRQMLQSQVMNIGPSELEMNMGGPQYNQQQAPPNQTAPWPESILPIDQASFASQNRQPFGSSPDDLLCPHPAAESPSDEGALLDQLYLALRNFDGLEEIDRALGIPELVSQSQAVDAEQFSSQE

- Fold induction of β-galactosidase by DHT (yeast 2-hybrid) [2]: 0.9 fold
- Fold induction of β-galactosidase by DHT (yeast 2-hybrid) [1]: 27 fold
- Fold induction of β-galactosidase by DHT (yeast 2-hybrid) [3]: 1.2 fold
- Fold induction of β-galactosidase by DHT (yeast 2-hybrid) [4]: 1 fold
- Fold induction of β-galactosidase by DHT (yeast 2-hybrid) [5]: 1.1 fold
B2: pACT2-PAK (yeast 2-hybrid prey) (other, not shown: large carriers)
chain: LKRRLFRSMFLSTAATAPPSSSKPGPPPQSKPNSSFRPPQKDNPPSLVAKAQSLPSDQPVGTFSPLTTSDTSSPQKSLRTAPATGQLPGRSSPAGSPRTWHAQISTSNLYLPQDPTVAKGALAGEDTGVVTHEQFKAALRMVVDQGDPRLLLDSYVKIGEGSTGIVCLAREKHSGRQVAVKMMDLRKQQRRELLFNEVVIMRDYQHFNVVEMYKNYLVGEELWVLMEFLQGGALTDIVSQVRLNEEQIATVCEAVLQALAYLHAQGVIHRDIKSDSILLTLDGRVKLSDFGFCAQISKDVPKRKSLVGTPYWMAPEVISRSLYATEVDIWSLGIMVIEMVDGEPPYFSDSPVQAMKRLRDSPPPKLKNSHKVSPVLRDFLERMLVRDPQERATAQELLDHPFLLQTGLPECLVPLIQLYRKQTSTC

From US20030166623A1 (BETH ISRAEL DEACONESS MEDICAL CENTER, published 2003)
